Measurements published in PMC4822050.

T1: SRA-Spacer (human, UniProt Q96T88 414-674)
T1 sequence: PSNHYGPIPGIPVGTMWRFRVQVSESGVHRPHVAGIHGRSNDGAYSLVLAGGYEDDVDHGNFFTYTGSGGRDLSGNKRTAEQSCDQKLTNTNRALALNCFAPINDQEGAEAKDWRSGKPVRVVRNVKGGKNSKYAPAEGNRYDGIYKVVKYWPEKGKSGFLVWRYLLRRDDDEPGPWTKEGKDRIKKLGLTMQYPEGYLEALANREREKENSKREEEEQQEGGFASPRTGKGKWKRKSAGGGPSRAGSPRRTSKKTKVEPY

T2: UHRF1 full-length (human, UniProt Q96T88 1-793)
T2 sequence: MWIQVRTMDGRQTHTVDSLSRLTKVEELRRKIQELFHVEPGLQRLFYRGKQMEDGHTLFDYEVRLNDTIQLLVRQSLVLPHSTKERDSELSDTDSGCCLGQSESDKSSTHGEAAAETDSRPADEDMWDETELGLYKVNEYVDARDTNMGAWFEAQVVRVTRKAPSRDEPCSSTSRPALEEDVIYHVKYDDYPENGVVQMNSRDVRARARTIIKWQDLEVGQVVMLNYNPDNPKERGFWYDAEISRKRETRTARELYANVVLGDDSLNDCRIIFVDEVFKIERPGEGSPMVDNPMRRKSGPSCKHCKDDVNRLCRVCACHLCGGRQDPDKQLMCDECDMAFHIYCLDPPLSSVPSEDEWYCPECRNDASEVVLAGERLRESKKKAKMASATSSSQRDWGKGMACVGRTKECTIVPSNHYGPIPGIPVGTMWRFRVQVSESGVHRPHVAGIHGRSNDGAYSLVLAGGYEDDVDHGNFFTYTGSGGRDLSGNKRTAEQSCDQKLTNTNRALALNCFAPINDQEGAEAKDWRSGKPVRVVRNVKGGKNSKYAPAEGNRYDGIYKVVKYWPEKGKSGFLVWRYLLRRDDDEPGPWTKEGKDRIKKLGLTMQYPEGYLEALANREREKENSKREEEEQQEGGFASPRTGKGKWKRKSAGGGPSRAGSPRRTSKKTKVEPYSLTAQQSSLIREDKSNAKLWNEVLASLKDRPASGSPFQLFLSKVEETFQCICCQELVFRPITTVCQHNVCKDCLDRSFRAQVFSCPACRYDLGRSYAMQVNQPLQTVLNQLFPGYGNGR

B1: 18-bp hm-DNA (crystal) (dsDNA)
DNA 1: CATCGTCCCTGCGGGCCC
DNA 2: GGGCCCGCAGGGACGATG
modifications: 5-methyl-dC at position 6 of strand 2 (GGGCCXGCAGGGACGATG)
B2: biotin-hm-DNA 12 bp (pull-down) (dsDNA)
DNA 1: GAGGCCGCCTGC
DNA 2: GCAGGCGGCCTC
modifications: 5-methyl-dC at position 6 of strand 1 (GAGGCXGCCTGC)

How the values were obtained:
SRA-Spacer = biological target: T1, SRA-Spacer; assay: X-ray crystallography; 3.15 A; Spacer residues 617-674 not built; ITC: 10 mM HEPES pH 8.0, 100 mM NaCl, 18 C; EMSA: 20 mM HEPES pH 7.5, 100 mM NaCl, 8% glycerol, 1 mM DTT, on ice; pull-down: 20 mM HEPES-NaOH pH 8.0, 100 mM NaC
UHRF1 full-length = biological target: T2, UHRF1 full-length; assay: pull-down; H3 (1-17) peptide; affinity not affected; ITC: 10 mM HEPES pH 8.0, 100 mM NaCl, 18 C; EMSA: 20 mM HEPES pH 7.5, 100 mM NaCl, 8% glycerol, 1 mM DTT, on ice; pull-down: 20 mM HEPES-NaOH pH 8.0, 100 mM NaC

Binder | binding result (SRA-Spacer) | binding result (UHRF1 full-length)
B1 | binds | –
B2 | – | binds
